Reference: patent US12138415B2, “Increased bioavailability of transdermally delivered agents” (priority 2011, dated 2024)

Tests used:
Dynamin = details: cited from earlier work
[1] = test system: monolayer of Caco-2 cells; assay: Caco-2 monolayer permeability (TEER) transport study of FITC-etanercept with Dynasore blocking Dynamin; format: in vitro ADME, human; details: DN2 polypropylene film, 0.1 mg/mL Dynasore and FITC-conjugated etanercept, FIG. 25
Protocol: The permeability effects of films patterned as described above were determined on a monolayer of Caco-2 cells (human epithelial colorectal adenocarcinoma cells). The effects of the nanostructured surfaces on transcellular transport mechanisms were investigated by blocking Dynamin, a critical protein in endocytosis, with Dynasore. Dynamin is a large GTPase protein that self-assembles into a spiral shape, constricting around budding vesicles to free them from the plasma membrane and into the cytosol for transcellular transport. The small molecule, Dynasore, is able to rapidly block the activity of Dynamin by quickly inhibiting the GTPase module of Dynamin within about 2 minutes and has been used in numerous studies for probing the mechanisms of cellular internalization and endocytosis for transcellular transport. The transport study was a transepithelial electrical resistance (TEER) study that was carried out in the presence of Dynasore to biochemically block the activity of Dynamin and preclude both clathrin and caveolin mediated endocytosis.
Films formed as described in Example 1 and Example 2 were utilized including a polypropylene (PP) film formed with a pattern designated as DN2, and a flat, nonpatterned polypropylene film. As control, a monolayer of cells with no associated film was utilized.
• 1. […] Measure fluorescence signal using a spectrofluorometer plate reader. […]

[2] = Organ and tissue etanercept concentration after 72 hours (sTNF RII ELISA); details: rabbit
Protocol: Test subjects (rabbits) were transdermally dosed with Enbrel® or were subcutaneously (SubQ) dosed with Enbrel®. […] The subcutaneous dose formulation (for the positive control) was prepared to facilitate a 2.5 mg/animal and the transdermal dose formulation was 1.875 mg/animal. Two subjects were utilized for each device type.
After 72 hours, several different organs and tissue types in each subject were examined for etanercept concentration. Specifically, organ representative samples of approximately 100 mg each were placed in labeled 50 mL conical storage tubes and stored in the dark at approximately −70° C. for preservation testing.
For analysis of Enbrel levels in tissues at the analytical laboratory, tissues were tested by use of a Quantikine® Human sTNF RII/TNFRSF1B Immunoassay (catalog no. DRT200, SRT200, PDRT200) available from R&D Systems, Inc. of Minneapolis, MN, USA. The immunoassay is a solid phase ELISA assay for determination of sTNF RII. The protein was measured against the standard provided with the kit, and etanercept was measured against a standard curve, with concentrations based on the dosage details.
All concentrations are provided as ng/g tissue. The ELISA detection mechanism could be utilized for concentrations down to about 0.6 pg/mL. Results of <MIN signify a concentration too low to be determined by the ELISA assay. Results of N/A indicate an error in the ELISA assay, with no reportable results obtained.

[3] = rabbit, in vivo
Source text: An array of microneedles including a nanopatterned surface was formed. Initially, an array of microneedles as illustrated in FIG. 2 was formed on a silicon wafer via a photolithography process. Each needle included two oppositely placed side channels, aligned with one through-die hole in the base of the needle (not visible on FIG. 2).
Microneedles were formed according to a typical micromachining process on a silicon based wafer. The wafers were layered with resist and/or oxide layers followed by selective etching (oxide etching, DRIE etching, iso etching), resist stripping, oxide stripping, and lithography techniques (e.g., iso lithography, hole lithography, slit lithography) according to standard methods to form the array of microneedles. The microneedles were 300 microns tall and 100 microns in diameter.
Following formation of the microneedle array, a 5 μm polypropylene film including a DN2 or a polypropylene film including a DN3 pattern formed thereon as described above in Example 1 was laid over the microneedle array. The wafer/film structure was held on a heated vacuum box (3″ H2O vacuum) at elevated temperature (130° C.) for a period of one hour to gently pull the film over the surface of the microneedles while maintaining the nanopatterned surface of the film.
The transdermal patches measured 25 mm by 25 mm with a density of 784 microneedles/cm^2. Control patches were also formed that had no pattern formed on the film subsequently applied to the array of microneedles.
Two subjects were utilized for each device type.
Approximately 100 to 200 μl blood was taken via—mandibular bleeding and then centrifuged at approximately 1300 rpm for 10 minutes in a refrigerated centrifuge (set at 4° C.). The resulting serum was aspirated and transferred within 30 minutes of blood collection/centrifugation to appropriately labeled tubes. The tubes were frozen and stored in the dark at ≤−70° C. until they were analyzed for levels of Enbrel® using Human sTNF-receptor ELISA kit (R&D Systems cat #DRT200). The space time between two blood samplings on the same subject was 24 hours, to prevent unnecessary stress placed on the subject.
Following, the blood serum level gradually declined within 56 hours of attachment and then leveled off.

EpiDerm™ tissue = assay: Etanercept delivery across EpiDerm tissue on nanopatterned film (donor/receptor chamber); format: in vitro ADME; details: 1 mg/mL, 37° C.; for increase in the amount of etanercept in the receiver chamber: EpiDerm tissue on DN2 patterned film
Source text: A device as illustrated in FIG. 28 was assembled including a film (i.e., a membrane) defining a pattern of nanostructures on a surface thereof. The film was formed as described above in Example 1 and was a polypropylene film including a DN2 pattern on the surface thereof. An EpiDerm™ tissue, a three dimensional construct organized into basal, spinous, and granular layers along a multi-layered stratum corneum available from MatTek Corporation, was located on the surface of the film as described above with regard to the monocellular layer.
A 1 mg/mL composition including the high molecular weight drug etanercept (Enbrel®) was prepared. Etanercept is a fusion protein having a molecular weight of 150 kDa. Phosphate buffered saline was located in the receptor chamber. The system was incubated at 37° C. and samples were withdrawn every five hours.
The composition was loaded in to the donor chamber on one side of an EpiDerm™ tissue either on the DN2 nanostructure film or on a polypropylene film with no nanopattern formed thereon (PPUI), and samples were withdrawn from the receptor chamber on the other side of the cell layer, as illustrated in FIG. 28. As can be see with reference to FIG. 29, following one hour, very little etanercept had passed into the receptor chamber for the control, while there was approximately a 1.7 fold increase in the amount of etanercept in the receiver chamber for the sample on the DN2 patterned film. After two hours, there was an approximately 2-fold increase for the system including the DN2 patterned film.

| Compound | time to inhibit the GTPase module of Dynamin (Dynamin) [min] | effect of blocking the transcellular delivery route on etanercept transport across the layer [1] | etanercept concentration in kidney ([2]; Subcutaneous dose 2.5 mg/animal) [ng/g tissue] | etanercept concentration in kidney ([2]; microneedle patch with Control Film (no pattern), 1.875 mg/animal) [ng/g tissue] | etanercept concentration in kidney ([2]; microneedle patch with DN3 pattern, 1.875 mg/animal) [ng/g tissue] | absorption of etanercept compared to the flat, unstructured device [3] | bioavailability relative to the control patch [3] | blood serum level of etanercept (course) [3] | decrease of time to reach the maximum concentration [3] [h] | increase in the maximum concentration [3] [%] | time of peak blood serum level [3] | time within which blood serum level gradually declined, then leveled off [3] [h] | increase in the amount of etanercept in the receiver chamber (EpiDerm™ tissue; after two hours) | increase in the amount of etanercept in the receiver chamber (EpiDerm™ tissue; following one hour) [fold] | amount of etanercept passed into the receptor chamber (EpiDerm™ tissue; EpiDerm tissue on polypropylene film with no nanopattern (PPUI, control), following one hour) |
| --- | --- | --- | --- | --- | --- | --- | --- | --- | --- | --- | --- | --- | --- | --- | --- |
| O=C(N/N=C/c1ccc(O)c(O)c1)c1cc2ccccc2cc1O [Dynasore] | ≤ 2 | – | – | – | – | – | – | – | – | – | – | – | – | – | – |
| etanercept | – | did not significantly decrease | 10.14 | 10.66 | 11.3 | significantly increased | about 35 times | very low levels | ~24 | 95 | approximately 48 hours | ≤ 56 | approximately 2 fold | ~1.7 | very little |
